In one data set the target is rhSox2 (Homo sapiens, UniProt P48431 P48431:1-317). Put plainly: NoShift plate assay, positive control. The following applies: tags: Peprotech; label: biotin. The protocol:
(§1) Assessment of the DNA Binding Activities of the Fusion Reprogramming Factors. The DNA-binding activities of the R9-Nanog, R9-Oct3/4, and R9-Sox2 fusion proteins were assayed by colorimetry utilizing the NoShift Transcription Factor Assay Kit (Novagen) according to the manufacturer's instructions. To assess sequence-specific binding activity, 1-2 μg of the R9-Nanog fusion protein, 2-10 μg of the R9-Oct3/4 fusion protein or 1-4 μg of the R9-Sox2 fusion protein were each incubated in […] with 0.5 μM of their respective biotinylated consensus dsDNA binding targets. […] Non-biotinylated competitor consensus dsDNA and scrambled dsDNA used to assess competitive binding were added at […]. As a positive control, recombinant human (rh) Nanog (Abcam) and rhSox (Peprotech) were used. HRP-conjugated anti-mouse immunoglobulin G was used as a secondary antibody to recognize the anti-Nanog (Abcam), anti-Oct3/4 (R&D Systems), and anti-Sox2 (R&D Systems) mouse monoclonal antibodies. All assays were performed in duplicate. Binding activity was measured via colorimetric absorbance at 450 nm on a Tecan multiwell spectrophotometer using 3,3,5,5-tetramethylbenzidine as the substrate.
(§2) The NoShift Assay (Novagen) was used to verify the DNA binding activities of R9-Nanog, R9-Sox2, and R9-Oct3/4. […]

In a further data set the target is R9-Sox2 (Homo sapiens, UniProt P48431 P48431:1-317). The experiment in a line: NoShift plate assay, 0.5 uM DNA; reduced by unlabelled consensus competitor. The following applies: protein: synthetic; tags: N-terminal CAT9-StrepTagII-Xa-R9-His6-G4S fusion, E. coli cell-free synthesis; label: biotin. The procedure:
as §1, §2

In another data set the target is R9-Oct3/4 (Homo sapiens, UniProt Q01860 Q01860:1-360). The description is as above. The conditions noted are these: protein: synthetic; tags: N-terminal CAT9-StrepTagII-Xa-R9-His6-G4S fusion, E. coli cell-free synthesis; label: biotin. The procedure: as §1, §2
In a further data set the target is rhNanog (Homo sapiens, UniProt Q9H9S0 Q9H9S0:1-305). Put plainly: NoShift plate assay, positive control. The conditions noted are these: tags: Abcam; label: biotin. The procedure: as §1, §2
Sequence of rhNanog (Q9H9S0 whole entry, one chain of several): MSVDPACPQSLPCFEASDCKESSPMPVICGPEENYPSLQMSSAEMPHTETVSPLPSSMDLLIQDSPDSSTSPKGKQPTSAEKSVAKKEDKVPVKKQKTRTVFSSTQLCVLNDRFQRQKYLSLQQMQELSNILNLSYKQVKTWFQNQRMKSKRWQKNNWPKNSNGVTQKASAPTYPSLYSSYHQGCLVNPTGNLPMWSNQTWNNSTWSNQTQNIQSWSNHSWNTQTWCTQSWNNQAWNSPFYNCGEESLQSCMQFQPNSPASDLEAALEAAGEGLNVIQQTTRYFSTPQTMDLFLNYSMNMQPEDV

Sequence of R9-Oct3/4 (Q01860 whole entry, the tested form may be a part, one chain of several): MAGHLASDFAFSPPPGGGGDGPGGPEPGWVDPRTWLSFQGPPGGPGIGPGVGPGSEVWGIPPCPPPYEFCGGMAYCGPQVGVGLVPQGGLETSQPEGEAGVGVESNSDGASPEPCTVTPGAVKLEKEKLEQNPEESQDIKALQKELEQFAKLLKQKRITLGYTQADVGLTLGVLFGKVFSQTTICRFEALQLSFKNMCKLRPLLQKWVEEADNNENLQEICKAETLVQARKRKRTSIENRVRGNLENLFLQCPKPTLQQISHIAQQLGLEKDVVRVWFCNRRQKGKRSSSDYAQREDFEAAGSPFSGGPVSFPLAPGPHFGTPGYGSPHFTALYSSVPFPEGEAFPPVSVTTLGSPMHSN
Sequence of R9-Sox2 (P48431 whole entry, the tested form may be a part, one chain of several): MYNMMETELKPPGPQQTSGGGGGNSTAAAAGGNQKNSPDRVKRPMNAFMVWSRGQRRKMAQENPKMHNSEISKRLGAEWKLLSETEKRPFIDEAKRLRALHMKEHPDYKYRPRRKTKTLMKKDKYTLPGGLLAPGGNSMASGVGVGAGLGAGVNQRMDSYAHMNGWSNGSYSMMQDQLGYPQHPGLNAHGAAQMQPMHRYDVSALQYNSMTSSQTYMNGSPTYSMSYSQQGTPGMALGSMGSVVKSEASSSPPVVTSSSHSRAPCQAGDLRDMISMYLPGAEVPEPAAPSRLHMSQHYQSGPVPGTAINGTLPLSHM
Sequence of rhSox2 (P48431 whole entry, the tested form may be a part, one chain of several): as above

B1: Sox2 consensus dsDNA (dsDNA)
DNA 1: GCAGAGGACAAAGGTGCCGTG
DNA 2: CACGGCACCTTTGTCCTCTGC
Turning to B1, the binding result with rhSox2 and with R9-Sox2 was “binds” each time.

B2: Oct3/4 consensus dsDNA (dsDNA)
DNA 1: GCAGAGAGATGCATGTGCCGT
DNA 2: ACGGCACATGCATCTCTCTGC
B2: the binding result with R9-Oct3/4 is listed as “binds”.

B3: Nanog consensus dsDNA (dsDNA)
DNA 1: ACCTGTTAATGGGAGCGC
DNA 2: GCGCTCCCATTAACAGGT
Take B3: in the data set with rhNanog, the binding result is on record as “binds”.

The record behind these values is patent US20120208232, “Cell-Free Synthesis of Active Reprogramming Transcription Factors” (published 2012).
